Positions count from the first letter of the chain named. Names may count otherwise. No end group written: not given here.
T1: TLR1 transmembrane domain (ToxR chimera)
T1 chain: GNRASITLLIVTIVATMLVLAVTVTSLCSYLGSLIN

T2: TLR5 transmembrane domain (ToxR chimera)
T2 chain: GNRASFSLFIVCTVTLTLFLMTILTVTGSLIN

T3: TLR2 transmembrane domain (ToxR chimera)
T3 chain: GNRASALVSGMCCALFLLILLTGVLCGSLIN

T4: TLR6 transmembrane domain (ToxR chimera)
T4 chain: T1 chain with V14G, S29I

T5: TLR10 transmembrane domain (ToxR chimera)
T5 chain: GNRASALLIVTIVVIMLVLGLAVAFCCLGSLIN

T6: TLR4 transmembrane domain (ToxR chimera)
T6 chain: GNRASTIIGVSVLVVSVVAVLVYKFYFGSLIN

T7: TLR2 transmembrane domain A597V (ToxR chimera), O60603
T7 chain: T3 chain with A14V

B1: TLR2 transmembrane domain (ToxR chimera) A597V (peptide)
chain: T3 chain with A14V
B2: TLR2 transmembrane domain (ToxR chimera) G593V (peptide)
chain: T3 chain with G10V
B3: TLR2 transmembrane domain (ToxR chimera) (domain or fragment)
chain: T3 chain
notes: flank encoded by the reading frame of the plasmid construct; Toll-like receptor 2 transmembrane domain, human, as identified by hydrophobic analysis; One molecule for the ToxR and the ToxR* form of this TMD; also called TLR2 TMD; wild type TLR2 TMD; source: E. coli FHK12, transformed with pTox7 or pTox6 plasmid, in the cells' membrane
B4: TLR1 transmembrane domain (ToxR chimera) (domain or fragment)
chain: T1 chain
notes: flank encoded by the reading frame of the plasmid construct; Toll-like receptor 1 transmembrane domain, human, as identified by hydrophobic analysis; One molecule for the ToxR and the ToxR* form of this TMD; also called TLR1 TMD; source: E. coli FHK12, transformed with pTox7 or pTox6 plasmid, in the cells' membrane
B5: TLR6 transmembrane domain (ToxR chimera) (domain or fragment)
chain: T1 chain with V14G, S29I
notes: flank encoded by the reading frame of the plasmid construct; Toll-like receptor 6 transmembrane domain, human, as identified by hydrophobic analysis; One molecule for the ToxR and the ToxR* form of this TMD; also called TLR6 TMD; source: E. coli FHK12, transformed with pTox7 or pTox6 plasmid, in the cells' membrane
B6: TLR10 transmembrane domain (ToxR chimera) (domain or fragment, human)
chain: T5 chain
notes: flank encoded by the reading frame of the plasmid construct; Toll-like receptor 10 transmembrane domain, human, as identified by hydrophobic analysis; One molecule for the ToxR and the ToxR* form of this TMD; also called TLR10 TMD; source: E. coli FHK12, transformed with pTox7 or pTox6 plasmid, in the cells' membrane

What was measured:
[1] = test system: heterotypic interactions of the TLR2 TMD; assay: Heterotypic ToxR assay of TLR2 point mutants; assay type: cell-based, E. coli; details: compared with native TLR2 TMD (Fig. 7B)
Excerpt: To investigate if these residues were involved in the homotypic or heterotypic interactions we performed site-directed mutagenesis at key positions in the TLR2 TMD – Gly593Val, Ala597Val, and Cys609Ile – and tested these mutants in both homotypic and heterotypic ToxR assays.
Figure 7 Toll-like Receptor 2 Interaction Interface Studied by Mutagenesis. TLR2 residues were mutated to study effects on homotypic and heterotypic interactions using the ToxR assay. These mutations were at positions identified in the sequence as likely interaction locations. (A) Homotypic interactions of point mutations show no difference in interaction potential from wild-type TLR2 TMD. (B) Heterotypic interactions of point mutations show the potential importance of both the Ala597 and Cys609 positions for heterotypic interactions. […]
For heterotypic interactions one plasmid containing a functional ToxR domain (200 ng) and a second plasmid containing a non-functional ToxR* domain (200 ng) were co-transformed into chemically competent FHK12 E. coli (400 µL) by incubating on ice for 30 min, heat shock at 42°C for 90 s, incubation on ice for 2 min, and addition of SOC media (1600 µL) followed by incubation with shaking for 1 h at 37°C. […] Analysis of activity was monitored as described in homotypic ToxR assays. […]

[2] = test system: homotypic TMD-TMD interaction (ToxR / ctx promoter / β-galactosidase reporter in FHK12 E. coli); assay: Homotypic ToxR reporter assay (β-galactosidase); assay type: cell-based; details: homotypic ToxR assay, compared with wild type TLR2 TMD (Fig. 7A)
Experimental: . Various plasmid constructs for this assay make it possible to monitor both homotypic and heterotypic interactions that are driven by TMD-TMD association (Fig. S1).
We first investigated homotypic interactions because the majority of the TLR family members function as homodimers. […] This ΔTM construct consists of the same maltose binding protein and ToxR domain, but lacks a TMD for proper membrane insertion (Fig. S2). Statistical analysis using the Tukey-Kramer test was performed to analyze any significant differences between all possible pairs of average interaction potentials (Table S2). […] Among the TLRs, no discernable differences in grouping based on statistical analysis at p = 0.05 were indicated as all receptors belonged to multiple groups, except for TLR1, which with the lowest interaction potential among the family of receptors only existed in one group (Table S1).
Figure 2 Toll-like Receptor Transmembrane Domain Homotypic Interactions. (A) The ToxR assay was used to study homotypic interactions of the TLR TMDs. A chimeric protein expressing the TMD of interest was monitored through β-galactosidase activity. In all cases, we saw that the TLRs have interaction potential solely from TMD-TMD interactions. Each TLR TMD interaction measurement analysis was performed on 3 technical replicates with >6 measurements for each replicate. Error bars depict the standard error of the mean (n – Table S1). Western blots staining for MBP were performed to monitor expression levels of the constructs – (B) chimeric maltose binding protein expression, (C) endogenous maltose binding protein expression. All samples were normalized to the GpA signal and expression levels.
Briefly, the ToxR plasmids containing the TMD of interest (200 ng) were transformed into chemically competent FHK12 E. coli (200 µL) by incubating on ice for 30 min, heat shock at 42°C for 90 s, incubation on ice for 2 min, and addition of SOC media (800 µL) followed by incubation with shaking for 1 h at 37°C. This transformation mixture (50 µL) was then spread on LB agar plates containing cholaramphenicol (30 µg/mL) and ampicillin (100 µg/mL) and grown overnight at 37°C. Single colonies were selected from the plates in triplicate and added to 5 mL of LB media containing cholaramphenicol (30 µg/mL), ampicillin (100 µg/mL), and arabinose (0.0025%). These cultures were incubated overnight (16–20 h) with shaking at 37°C. The β-galactosidase activity was monitored using a Beckman Coulter DTX 880 plate-reader. First 5 µL of each culture was plated >6 times in a clear 96-well flat bottom culture plate (Sarstedt) containing 100 µL of Z-buffer/chloroform (1% β-mercaptoethanol, 10% chloroform, 89% Z buffer: […], 10 mM potassium chloride, 1 mM magnesium sulfate, pH 7.0). The cell densities of each well were recorded by measuring the OD595. Bacteria were lysed by the addition of 50 µL Z-buffer/SDS (1.6% sodium dodecyl sulfate w/v in Z-buffer) and shaking at 28°C for 10 min. Enzymatic activity was measured by adding 50 µL of Z-buffer/ortho-Nitrophenyl-β-[…] (ONPG) (0.4% ONPG w/v in Z-buffer) and monitoring the reaction at 405 nm for a period of 20 min at 30 s intervals. Miller units were calculated using the equation: [drawing 1]
Western blotting was performed with antiserum recognizing the maltose-binding protein moiety of the constructs (Abcam). Data were normalized to GpA Miller Units and protein expression levels using ImageJ (NIH) as reported previously.

[3] = target: T1, TLR1 transmembrane domain (ToxR chimera); assay: heterotypic ToxR assay; details: chain shown with the change; competitor TLR1* (nonfunctional ToxR* chimera); PolyLeu* = 1.0; lower signal = more ToxR inhibition = more interaction; parent: est. 0.47; read off a plot
[4] = target: T2, TLR5 transmembrane domain (ToxR chimera); assay: heterotypic ToxR assay; details: chain shown with the change; competitor TLR5* (nonfunctional ToxR* chimera); PolyLeu* = 1.0; lower signal = more ToxR inhibition = more interaction; parent: est. 0.53; read off a plot
[5] = target: T3, TLR2 transmembrane domain (ToxR chimera); assay: heterotypic ToxR assay; details: chain shown with the change; competitor TLR2* (nonfunctional ToxR* chimera); PolyLeu* = 1.0; lower signal = more ToxR inhibition = more interaction; parent: est. 0.42; read off a plot
[6] = target: T4, TLR6 transmembrane domain (ToxR chimera); assay: heterotypic ToxR assay; details: chain shown with the change; competitor TLR6* (nonfunctional ToxR* chimera); PolyLeu* = 1.0; lower signal = more ToxR inhibition = more interaction; parent: est. 0.24; read off a plot
[7] = target: T5, TLR10 transmembrane domain (ToxR …); assay: heterotypic ToxR assay; details: chain shown with the change; competitor TLR10* (nonfunctional ToxR* chimera); PolyLeu* = 1.0; lower signal = more ToxR inhibition = more interaction; parent: est. 0.41; read off a plot
[8] = target: T6, TLR4 transmembrane domain (ToxR chimera); assay: heterotypic ToxR assay; details: chain shown with the change; competitor TLR4* (nonfunctional ToxR* chimera); PolyLeu* = 1.0; lower signal = more ToxR inhibition = more interaction; parent: est. 0.90; read off a plot
[9] = target: T7, TLR2 transmembrane domain A597V (ToxR …); assay: homotypic ToxR assay; details: chain shown with the change; higher signal = more homotypic TMD association; parent: est. 1.0; read off a plot
[10] = target: B5; assay: dominant-negative ToxR reporter assay; heterotypic; one TMD with functional ToxR (dominant phenotype) and one with non-functional ToxR* (negative phenotype) co-expressed in E. coli FHK12; interaction read as reduction of β-galactosidase signal; normalised to poly-Leu* and to expression levels; details: partners not purified
[11] = target: B4; assay: as above; details: partners not purified
[12] = target: B3; assay: as above; details: partners not purified

TLR2 A597V: TLR2 TMD ToxR construct with point mutation Ala597Val (GNRASALVSGMCCVLFLLILLTGVLCGSLIN; cysteine pairing not given here; also: fused to ToxR activation domain and maltose binding protein, ends not given here)
Effect of TLR2 point mutation on heterotypic interactions [1]: capable of reducing the ToxR inhibition demonstrated by the native TLR2 TMD | Effect of TLR2 point mutation on homotypic interaction [2]: no mutation demonstrated significant difference from the wild type TLR2 TMD

TLR2 C609I: TLR2 TMD ToxR construct with point mutation Cys609Ile (GNRASALVSGMCCALFLLILLTGVLIGSLIN; cysteine pairing not given here; also: fused to ToxR activation domain and maltose binding protein, ends not given here)
Effect of TLR2 point mutation on heterotypic interactions [1]: capable of reducing the ToxR inhibition demonstrated by the native TLR2 TMD | Effect of TLR2 point mutation on homotypic interaction [2]: no mutation demonstrated significant difference from the wild type TLR2 TMD

B1
response (normalized Miller units) [3]: 1 | response (normalized Miller units) [4]: 1 | response (normalized Miller units) [5]: 0.8 | response (normalized Miller units) [6]: 0.82 | response (normalized Miller units) [7]: 1.2 | response (normalized Miller units) [8]: 1.1 | response (normalized Miller units) [9]: 1

B2
response (normalized Miller units) [3]: 0.58 | response (normalized Miller units) [4]: 0.48 | response (normalized Miller units) [5]: 0.44 | response (normalized Miller units) [6]: 0.54 | response (normalized Miller units) [7]: 0.5 | response (normalized Miller units) [8]: 0.95

B3
reduction in signal from the homotypic interaction [10]: > 60% | reduction in signal from the homotypic interaction [11]: > 60%

B4
reduction in signal from the homotypic interaction [10]: > 60% | reduction in signal from the homotypic interaction [12]: > 60%

B5
reduction in signal from the homotypic interaction [11]: > 60% | reduction in signal from the homotypic interaction [12]: > 60%

B6
reduction in signal from the homotypic interaction [10]: > 60% | reduction in signal from the homotypic interaction [11]: > 60% | reduction in signal from the homotypic interaction [12]: > 60%

Source: PMC3498381, “Isolated Toll-like Receptor Transmembrane Domains Are Capable of Oligomerization” (PLoS ONE, 2012)
